The values below come from the supplement of paper PMC10126150.

For this series, the system named is ATP. Put plainly: switch fluorescence ratio, 500 uM ATP over buffer (Cy3 cluster intensity, sum of 5 cycles each) (fold (ratio)); higher = stronger signal-on switching upon ATP binding; sequences stand for … in TCGTCGGCAGCGTCAGATGTGTATAAGAGACAGTTTTTTTTTTTTTTTTTTTTTTTTT…TC. Conditions: aptamer strand: ATP DNA aptamer (quencher-CACCTGGGGGAGTATTGCGGAGGAAGG + anchor), 100 nM annealed; ATP concentration: 500 uM. The essentials: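 Per cluster, summed Cy3 intensity from the target cycles was divided by that from the buffer cycles to give the fluorescence ratio, then averaged per switch-domain sequence. Clusters outside 100-1000 RFU were excluded. The Cy3-labelled switching-strand clusters, on a modified Illumina MiSeq flow-cell, were annealed to 100 nM quencher-labelled ATP aptamer and imaged in selection buffer, then after 15 min with 500 uM ATP at 22 °C, for five cycles with NaOH stripping and re-annealing between them.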

± gives the standard deviation of the averaged measurements.
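Further: ATP exposure 15 min at 22 °C before imaging.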

With TCAGGGTTTC, the switch fluorescence ratio turned out to be 0.984 ± 0.013.
As to TCAGGTAATT, the switch fluorescence ratio came to 1.03 ± 0.031.
Turning to TCAGGTGCGG, the switch fluorescence ratio was 1.16 ± 0.061.
For TCAGGTTAGG, the switch fluorescence ratio stood at 1.008 ± 0.0065.
Take TCAGTAATGA: the switch fluorescence ratio was found to be 1.0075 ± 7.1e-05.
For TCAGTATAGC, the switch fluorescence ratio is 1.018 ± 0.004.
As for TCAGTCAACC, the switch fluorescence ratio amounted to 1.1 ± 0.017.
With TCAGTCAGTT, the switch fluorescence ratio was 0.991 ± 0.048.
On to TCAGTCATTA, for which the switch fluorescence ratio was found to be 0.989 ± 0.016.
In the case of TCAGTCTGCC, the switch fluorescence ratio turned out to be 1.03 ± 0.052.
For TCAGTCTTTT, the switch fluorescence ratio is 0.998 ± 0.016.
With TCAGTGAACT, the switch fluorescence ratio was 1 ± 0.039.
Regarding TCAGTTGGGA, the switch fluorescence ratio was 0.9697 ± 0.0062.
Consider TCAGTTTTTT, for which the switch fluorescence ratio came out at 0.999 ± 0.035.
Turning to TCATAAACTT, the switch fluorescence ratio was found to be 1.09 ± 0.058.
For TCATACGGTA, the switch fluorescence ratio stood at 1.179 ± 0.005.
The same measure for TCATACTTTT: 1.01 ± 0.026; for TCATAGACGG: 0.987 ± 0.021; for TCATAGTATG: 0.982 ± 0.04.
As for TCATATAATA, the switch fluorescence ratio worked out at 1.01 ± 0.018.
On to TCATCATTTT, for which the switch fluorescence ratio was found to be 0.996 ± 0.0019.
Consider TCATCCGTTT, for which the switch fluorescence ratio is 1.13 ± 0.15.
On to TCATCGTGCC, for which the switch fluorescence ratio worked out at 0.99 ± 0.032.
As for TCATGAGCCA, the switch fluorescence ratio worked out at 1.04 ± 0.025.
In the case of TCATGCAACG, the switch fluorescence ratio turned out to be 1.06 ± 0.06.
Turning to TCATGCAGAT, the switch fluorescence ratio turned out to be 1.02 ± 0.056.
The same measure for TCATGGCACG: 1.02 ± 0.019.
On to TCATGGGCGC, for which the switch fluorescence ratio is 1.01 ± 0.014.
Consider TCATGGGGCG, for which the switch fluorescence ratio was 0.993 ± 0.012.
Regarding TCATGTACGT, the switch fluorescence ratio came out at 1.06 ± 0.028.
For the sequence TCATGTTATG, the switch fluorescence ratio was found to be 0.971 ± 0.065.
Turning to TCATGTTGCT, the switch fluorescence ratio was 1.01 ± 0.025.
As for TCATGTTGGA, the switch fluorescence ratio is 0.977 ± 0.02.
Then TCATTAAGTT, with 1.08 ± 0.094; and TCATTAGCCT, with 1.08 ± 0.019.
TCATTAGCTT: the switch fluorescence ratio was 0.991 ± 0.012.
The same measure for TCATTCTTTA: 1.01 ± 0.019; for TCATTGATTT: 0.978 ± 0.022.
As for TCATTGGACT, the switch fluorescence ratio is 0.98 ± 0.023.
Regarding TCATTGTAAC, the switch fluorescence ratio amounted to 1.06 ± 0.023.
For TCATTGTTTT, the switch fluorescence ratio stood at 1.01 ± 0.019.
Consider TCATTTATAT, for which the switch fluorescence ratio is 0.98 ± 0.047.
Then TCATTTCAGC, with 1.03 ± 0.011; and TCATTTCAGG, with 1.01 ± 0.012.
In the case of TCATTTGGAT, the switch fluorescence ratio was 1 ± 0.023.
Then TCATTTGGGG, with 0.975 ± 0.024; and TCATTTTAGT, with 0.99 ± 0.026; and TCATTTTCGG, with 0.986 ± 0.025.
Regarding TCATTTTGAA, the switch fluorescence ratio was found to be 1.01 ± 0.0012.
Regarding TCCAAAATTT, the switch fluorescence ratio was determined as 0.976 ± 0.013.
Consider TCCAACGGGT, for which the switch fluorescence ratio is 1.03 ± 0.059.
In the case of TCCAAGACGA, the switch fluorescence ratio was 1.34 ± 0.23.
In the case of TCCAAGAGGG, the switch fluorescence ratio was determined as 1.01 ± 0.031.
As for TCCAAGGCTT, the switch fluorescence ratio stood at 1.038 ± 0.0014.
Consider TCCAATTTGA, for which the switch fluorescence ratio stood at 0.998 ± 0.012.
Consider TCCACCGA, for which the switch fluorescence ratio worked out at 1.04 ± 0.017.
As for TCCACGGTCT, the switch fluorescence ratio is 1.0273 ± 0.00046.
On to TCCAGATCAT, for which the switch fluorescence ratio is 0.993 ± 0.018.
Regarding TCCAGATGGA, the switch fluorescence ratio came out at 0.977 ± 0.037.
Take TCCAGATTCT: the switch fluorescence ratio came out at 0.9828 ± 0.0086.
Consider TCCAGGAGGG, for which the switch fluorescence ratio was 1.025 ± 0.0075.
As for TCCAGGAGTG, the switch fluorescence ratio stood at 1.15 ± 0.019.
With TCCAGGGAAT, the switch fluorescence ratio came to 1.04 ± 0.029.
As for TCCAGGGGCA, the switch fluorescence ratio came to 1.67 ± 0.1.
Regarding TCCAGTAATA, the switch fluorescence ratio is 1.17 ± 0.19.
With TCCAGTAGTT, the switch fluorescence ratio turned out to be 0.982 ± 0.024.
Regarding TCCATAGGGG, the switch fluorescence ratio came to 1.53 ± 0.88.
On to TCCATCGCTT, for which the switch fluorescence ratio was 1.6 ± 0.79.
TCCATCTGGG: the switch fluorescence ratio amounted to 1.01 ± 0.032.
With TCCATCTTTT, the switch fluorescence ratio came to 0.999 ± 0.014.
For TCCATGACCC, the switch fluorescence ratio stood at 1.01 ± 0.015.
TCCATGACGC: the switch fluorescence ratio came out at 1.099 ± 0.0088.
Regarding TCCATGATTG, the switch fluorescence ratio is 0.973 ± 0.037.
As for TCCATTCATA, the switch fluorescence ratio came to 1.01 ± 0.023.
Take TCCATTTGGA: the switch fluorescence ratio was 1.02 ± 0.052.
On to TCCCAACGGG, for which the switch fluorescence ratio was determined as 1.011 ± 0.0036.
Consider TCCCCAATTT, for which the switch fluorescence ratio was found to be 1.13 ± 0.12.
On to TCCCCAGCAC, for which the switch fluorescence ratio was found to be 3.1 ± 2.7.
TCCCCCTGTT: the switch fluorescence ratio is 1.01 ± 0.013.
The same measure for TCCCCGGGCA: 0.995 ± 0.04.
TCCCCGGTCA: the switch fluorescence ratio amounted to 1.09 ± 0.15.
Take TCCCCTCGGC: the switch fluorescence ratio was found to be 1.08 ± 0.046.
The same measure for TCCCCTTTTT: 1.04 ± 0.015; for TCCCGATTTC: 1.07 ± 0.024; for TCCCGCTTGT: 1.17 ± 0.028.
With TCCCGTTTGA, the switch fluorescence ratio turned out to be 1.01 ± 0.016.
For TCCCTCAGGG, the switch fluorescence ratio was 1.46 ± 0.078.
TCCCTGTTTT: the switch fluorescence ratio was found to be 0.991 ± 0.016.
On to TCCGAAGGGT, for which the switch fluorescence ratio worked out at 0.991 ± 0.045.
Consider TCCGAAGGTA, for which the switch fluorescence ratio was found to be 1.07 ± 0.025.
Regarding TCCGACGGTT, the switch fluorescence ratio was 3.31 ± 0.46.
Then TCCGATTTAT, with 0.989 ± 0.026; and TCCGCGGGGA, with 1.52 ± 0.59; and TCCGCGGGTT, with 1.14 ± 0.2.
Turning to TCCGCTTGA, the switch fluorescence ratio worked out at 1.58 ± 0.047.
As to TCCGGCGTGC, the switch fluorescence ratio worked out at 1.13 ± 0.23.
As for TCCGGGGCAG, the switch fluorescence ratio came out at 1.262 ± 0.0072.
Take TCCGGGGGGG: the switch fluorescence ratio was found to be 1.06 ± 0.094.
In the case of TCCGGGGGTG, the switch fluorescence ratio was 1.09 ± 0.13.
TCCGGTGTTT: the switch fluorescence ratio stood at 1.081 ± 0.0036.
TCCGGTTGTC: the switch fluorescence ratio worked out at 1.11 ± 0.036.
Turning to TCCGTCACTA, the switch fluorescence ratio stood at 1.438 ± 0.0074.
The same measure for TCCTACTACG: 1.08 ± 0.026.
For TCCTAGGCGT, the switch fluorescence ratio was 1.06 ± 0.12.
As for TCCTAGGGGT, the switch fluorescence ratio is 2.44 ± 1.2.
Regarding TCCTAGGTCT, the switch fluorescence ratio came to 1.009 ± 0.0029.
In the case of TCCTAGTTGA, the switch fluorescence ratio was 1.024 ± 0.0012.
Consider TCCTATACTA, for which the switch fluorescence ratio came out at 1.035 ± 0.0094.
With TCCTATTGTG, the switch fluorescence ratio stood at 1.03 ± 0.042.
Consider TCCTCGAGTA, for which the switch fluorescence ratio worked out at 1.27 ± 0.027.
Take TCCTGAGTTA: the switch fluorescence ratio was determined as 0.996 ± 0.011.
Take TCCTGCAGGA: the switch fluorescence ratio was found to be 1.03 ± 0.014.
The same measure for TCCTGCCTTA: 1.0991 ± 0.00051; for TCCTGCGGGG: 1.12 ± 0.12; for TCCTGGAGGA: 0.989 ± 0.05.
Take TCCTGGGCGG: the switch fluorescence ratio turned out to be 1.077 ± 0.0028.
Then TCCTGGGGGG, with 1.04 ± 0.046.
With TCCTGGGTGT, the switch fluorescence ratio was determined as 2.23 ± 0.12.
The same measure for TCCTTATTGG: 1 ± 0.0068.
With TCCTTCAAAG, the switch fluorescence ratio was found to be 1.08 ± 0.085.
